Assay results from patent US20230416329A1 (INSTITUTE OF MATERIA MEDICA CHINESE ACADEMY OF MEDICAL …, published 2023).
Bridge positions count the residues as written; N and C are the ends. Square brackets hold non-standard residues; d marks the D form. Ends that are not written are not given here. Hyp = O=C(O)[C@@H]1C[C@@H](O)CN1; hCys = N[C@@H](CCS)C(=O)O; Nle = CCCC[C@H](N)C(=O)O

Tests used:
PCSK9 protein = target: T1, PCSK9 protein (UniProt Q8NBP7 31-692, limits assumed); test: PCSK9-LDLR in vitro binding assay kit, OD450/540; peptide 50 µM, PCSK9 75 ng/mL; inhibition of PCSK9 binding to LDLR
T1 construct: Kit reagent; also called proprotein convertase subtilisin/kexin type 9

[1] = target: T2, porcine pancreatic elastase (porcine, UniProt P00772 27-266); test: elastase inhibition, Ki=IC50/(1+S/Km)
T2 construct: substrate AAApNA

[2] = target: T2, porcine pancreatic elastase; test: elastase inhibition, AAApNA substrate, OD405
bovine trypsin = bovine trypsin (bovine, UniProt P00760 24-246); test: trypsin inhibition, BApNA substrate
Procedure: The substrates N-succinyl-Ala-Ala-Pro-Phe-p-nitroaniline (AAPFpNA), Nα—Benzoyl-L-arginine-4-nitroaniline hydrochloride (BApNA) and N-succinyl-[…] (AAApNA) are used in competitive binding reaction to determine the inhibitory activities against α-chymotrypsin, bovine trypsin, and porcine pancreatic elastase, respectively. Experiments for α-chymotrypsin and bovine trypsin inhibition were measured in 20 mM CaCl₂, 50 mM Tris-HCl buffer (pH 7.8), and that for porcine elastase inhibition was measured in 50 mM Tris-HCl buffer (pH 8.0). The concentration of the peptide was measured using optical density (OD) at 280 nm. The Michaelis constant (Kₘ) of the enzyme hydrolysis substrate is calculated from the initial rate of substrate hydrolysis at 405 nm. The absorbance value of the substrate was measured at 405 nm after complete hydrolysis. All data were processed using nonlinear regression.
(1) Added a total 190 μL of reaction buffer (20 mM CaCl₂ and 50 mM Tris-HCl, pH 7.8) along with different concentrations of anti-trypsin peptides (BTs) into the pre-cooled 96-well plate, followed by preheating at 37° C., and spined down at 500 rpm for 5 min. Next added 10 μL of 1 μM trypsin, incubated at 37° C., and then spined down at 500 rpm for 10 min. Finally, added 5 μL of 50 mM BApNA, and mixed by centrifugation at 500 rpm for 1 min. […] The experiment was performed in triplicate. The blank control only contained the reaction buffer and the substrate as the minimum absorption value (Min OD_{405 nm}). The negative control only contained the reaction buffer, the enzyme and the substrate as the maximum absorption value (Max OD_{405 nm}). […] (2) In the reaction system of 205 μL, the final concentrations of trypsin and BApNA were 50 nM and 1.22 mM, respectively. [0456] (3) Data statistics

T2 sequence (P00772 27-266 limits assumed): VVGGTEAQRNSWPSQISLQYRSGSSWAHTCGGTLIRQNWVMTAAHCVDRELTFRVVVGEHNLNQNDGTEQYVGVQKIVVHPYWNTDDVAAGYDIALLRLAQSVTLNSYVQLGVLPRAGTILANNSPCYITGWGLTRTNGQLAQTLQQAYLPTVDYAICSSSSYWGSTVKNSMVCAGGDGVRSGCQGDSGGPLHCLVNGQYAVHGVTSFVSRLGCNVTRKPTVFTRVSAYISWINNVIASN
Sequence of bovine trypsin (P00760 24-246): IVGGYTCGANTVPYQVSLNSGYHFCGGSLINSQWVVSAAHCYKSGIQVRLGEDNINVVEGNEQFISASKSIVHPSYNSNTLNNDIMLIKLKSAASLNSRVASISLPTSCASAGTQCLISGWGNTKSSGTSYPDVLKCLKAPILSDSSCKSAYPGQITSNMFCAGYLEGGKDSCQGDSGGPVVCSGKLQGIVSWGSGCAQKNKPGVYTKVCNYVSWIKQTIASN

GTNEALDNNCGRATKSIPPICFYVANDLKI (disulfide 10-21 (inferred)) [PCSK9_10]
Inhibitory rate (%) (PCSK9 protein): -18.5%

QGADTPPVGGLCTASIPPQCY (disulfide 12-20 (inferred), disulfide bond between the two Cys) [EC49]
Ki [1]: 280 nM
IC50 [2]: 990 nM

CGRATKSIPPIAFGC (disulfide 1-15 (inferred)) [BT32]
IC50 (bovine trypsin): 1540 nM
Ki (bovine trypsin): 330 nM

B1: PCSK9_3 (peptide)
peptide: CGRATKSIPPICFGTVFTSWEEALDWV
modifications: disulfide 1-12 (inferred)
notes: Hybrid with the anti-trypsin scaffold BT9; A disulfide bond joins the two Cys of the scaffold
Inhibitory rate (%) (PCSK9 protein): 89.9%

B2: EC50 (peptide)
peptide: SNGNAVEDGGLCTASIPPQCY
modifications: disulfide 12-20 (inferred)
notes: disulfide bond between the two Cys; peptide name, not a potency value
Ki [1]: 280 nM
IC50 [2]: 970 nM

B3: PCSK9_9 (peptide)
peptide: TVFTSGRCTKSIPPICFWEEYLDWV
modifications: disulfide 8-16 (inferred)
notes: Hybrid with the anti-trypsin scaffold BT45; A disulfide bond joins the two Cys of the scaffold
Inhibitory rate (%) (PCSK9 protein): 93.9%

CGI[Nle]TASIPPICQ (disulfide 1-12 (inferred), disulfide bond between the two Cys) [EC32]
Ki [1]: 6110 nM
IC50 [2]: 21400 nM

ICTASI[Hyp]PICQ (disulfide 2-10 (inferred), disulfide bond between the two Cys) [EC47]
Ki [1]: 110 nM
IC50 [2]: 400 nM

B4: PCSK9_7 (peptide)
peptide: TVFTSGCGRATKSIPPICFWEEYLDWV
modifications: disulfide 7-18 (inferred)
notes: as for B1
Inhibitory rate (%) (PCSK9 protein): 80.7%

CGLATLSIPPICQ (disulfide 1-12 (inferred), disulfide bond between the two Cys) [EC7]
Ki [1]: 9620 nM
IC50 [2]: 33700 nM

CGILTASIPPICQ (disulfide 1-12 (inferred), disulfide bond between the two Cys) [EC33]
Ki [1]: 7580 nM
IC50 [2]: 26500 nM

CAIATASIPPICQ (disulfide 1-12 (inferred), disulfide bond between the two Cys) [EC45]
Ki [1]: 13400 nM
IC50 [2]: 47000 nM

LCTASIPPICQ (disulfide 2-10 (inferred), disulfide bond between the two Cys) [EC12]
Ki [1]: 110 nM
IC50 [2]: 400 nM

VCTASIPPICQ (disulfide 2-10 (inferred), disulfide bond between the two Cys) [EC22]
Ki [1]: 110 nM
IC50 [2]: 400 nM

ICTASIPPICQ (disulfide 2-10 (inferred), disulfide bond between the two Cys) [EC23]
Ki [1]: 70 nM
IC50 [2]: 250 nM

ICTASIPPQCQ (disulfide 2-10 (inferred), disulfide bond between the two Cys) [EC19]
Ki [1]: 330 nM
IC50 [2]: 1140 nM

LCTASIPPQCY (disulfide 2-10 (inferred), disulfide bond between the two Cys) [EC1]
Ki [1]: 330 nM
IC50 [2]: 1170 nM

FCTASIPPICQ (disulfide 2-10 (inferred), disulfide bond between the two Cys) [EC24]
Ki [1]: 640 nM
IC50 [2]: 2230 nM

YCTASIPPICQ (disulfide 2-10 (inferred), disulfide bond between the two Cys) [EC29]
Ki [1]: 260 nM
IC50 [2]: 920 nM

YCTASIPPQCY (disulfide 2-10 (inferred), disulfide bond between the two Cys) [EC14]
Ki [1]: 2040 nM
IC50 [2]: 7140 nM

LCTLSIPPQCY (disulfide 2-10 (inferred), disulfide bond between the two Cys) [EC2]
Ki [1]: 910 nM
IC50 [2]: 3190 nM

LCTASNPPICQ (disulfide 2-10 (inferred), disulfide bond between the two Cys) [EC25]
Ki [1]: 300 nM
IC50 [2]: 1050 nM

LCTASIPPICR (disulfide 2-10 (inferred), disulfide bond between the two Cys) [EC21]
Ki [1]: 4370 nM
IC50 [2]: 15300 nM

LCTASIPPQCQ (disulfide 2-10 (inferred), disulfide bond between the two Cys) [EC18]
Ki [1]: 270 nM
IC50 [2]: 960 nM

ICTASIP[Hyp]ICQ (disulfide 2-10 (inferred), disulfide bond between the two Cys) [EC48]
Ki [1]: 160 nM
IC50 [2]: 550 nM

CGRATKSIPPIAC (disulfide 1-13 (inferred)) [BT13]
IC50 (bovine trypsin): 31500 nM
Ki (bovine trypsin): 6700 nM

MCTASMPPQCH (disulfide 2-10 (inferred), disulfide bond between the two Cys) [EC26]
Ki [1]: 6840 nM
IC50 [2]: 23900 nM

CGRATKSLPPACF (disulfide 1-12 (inferred)) [BT14]
IC50 (bovine trypsin): 1650 nM
Ki (bovine trypsin): 350 nM

[hCys]GRATKSIPPIAF[hCys] (disulfide 1-14) [BT29]
IC50 (bovine trypsin): 10600 nM
Ki (bovine trypsin): 2260 nM

[hCys]GRATKSIPPIAFG[hCys] (disulfide 1-15) [BT33]
IC50 (bovine trypsin): 5570 nM
Ki (bovine trypsin): 1190 nM

GTCTRSIPPICNPN (disulfide 3-11 (inferred)) [BT23]
IC50 (bovine trypsin): 1820 nM
Ki (bovine trypsin): 390 nM

B5: PCSK9_8 (peptide)
peptide: TVFTSGCGRATKSIPPICFSWEEYLDWV
modifications: disulfide 7-18 (inferred)
notes: as for B1
Inhibitory rate (%) (PCSK9 protein): 75.7%

B6: PCSK9_2 (peptide)
peptide: TVFTSWEEALDWVCGRATKSIPPICF
modifications: disulfide 14-25 (inferred)
notes: Hybrid of the Pep2-8 analogue with the anti-trypsin scaffold BT9; A disulfide bond joins the two Cys of the scaffold
Inhibitory rate (%) (PCSK9 protein): 89.9%

CGAKGTKSIPPICFPD (disulfide 1-13 (inferred)) [BT2]
IC50 (bovine trypsin): 3030 nM
Ki (bovine trypsin): 650 nM

CGAKATKSIPPICFPD (disulfide 1-13 (inferred)) [BT3]
IC50 (bovine trypsin): 680 nM
Ki (bovine trypsin): 140 nM

B7: PCSK9_4 (peptide)
peptide: WEEALDWVCGRATKSIPPICFTVFTS
modifications: disulfide 9-20 (inferred)
notes: A disulfide bond joins the two Cys of the scaffold
Inhibitory rate (%) (PCSK9 protein): 41.4%

CGRATKS[Nle]PPICF (disulfide 1-12 (inferred)) [BT28]
IC50 (bovine trypsin): 290 nM
Ki (bovine trypsin): 60 nM

CGRATKSIPPIAFC (disulfide 1-14 (inferred)) [BT11]
IC50 (bovine trypsin): 2200 nM
Ki (bovine trypsin): 470 nM

CWTKSIPPKPC (disulfide 1-11 (inferred)) [BT36]
IC50 (bovine trypsin): 4650 nM
Ki (bovine trypsin): 990 nM

B8: PCSK9_5 (peptide)
peptide: WEEALDWVCGRATKSIPPICFGTVFTS
modifications: disulfide 9-20 (inferred)
notes: as for B1
Inhibitory rate (%) (PCSK9 protein): 77.9%

B9: PCSK9_6 (peptide)
peptide: WEEYLDYVCGRATKSIPPICFGTVFTS
modifications: disulfide 9-20 (inferred)
notes: as for B1
Inhibitory rate (%) (PCSK9 protein): 87%

CGRATKSIPPQCY (disulfide 1-12 (inferred)) [BT12]
IC50 (bovine trypsin): 8460 nM
Ki (bovine trypsin): 1800 nM

ICTASYPPQCR (disulfide 2-10 (inferred), disulfide bond between the two Cys) [EC27]
Ki [1]: 2440 nM
IC50 [2]: 8530 nM
